The source of these data is article PMC4237437, “Biochemical and Structural Characterization of Mycobacterial Aspartyl-tRNA Synthetase AspS, a Promising TB Drug Target” (PLoS ONE, 2014).

The target in data set [1] is T1, Mt-AspS (M. tuberculosis aspartyl-tRNA synthetase) (Mycobacterium tuberculosis, UniProt P9WFW3).
T1 construct: C-terminally His6-tagged Mt-AspS (pET28b)
Put plainly: biochemical.

Another data set concerns N[C@@H](CC(=O)O)C(=O)O. Put plainly: purified protein.
Data set [2] concerns Nc1ncnc2c1ncn2[C@@H]1O[C@H](COP(=O)(O)OP(=O)(O)CP(=O)(O)O)[C@@H](O)[C@H]1O. Put plainly: purified protein.
For data set [3], the system named is Nc1ncnc2c1ncn2[C@@H]1O[C@H](COP(=O)(O)OP(=O)(O)NP(=O)(O)O)[C@@H](O)[C@H]1O. In words: purified protein.
A further data set relates to O=P(O)(O)OP(=O)(O)O. In words: purified protein.
Data set [4] deals with the molecule itself. In words: crystal structure; apo Ms-AspS, 2.4 Å, space group C222(1), one molecule per asymmetric unit; the two monomers of the dimer are related by crystal symmetry; crystals from 30% pentaerythritol ethoxylate, 0.1 M magnesium formate, 0.1 M Tris-HCl pH 8.5.

T1 sequence (P9WFW3 whole entry): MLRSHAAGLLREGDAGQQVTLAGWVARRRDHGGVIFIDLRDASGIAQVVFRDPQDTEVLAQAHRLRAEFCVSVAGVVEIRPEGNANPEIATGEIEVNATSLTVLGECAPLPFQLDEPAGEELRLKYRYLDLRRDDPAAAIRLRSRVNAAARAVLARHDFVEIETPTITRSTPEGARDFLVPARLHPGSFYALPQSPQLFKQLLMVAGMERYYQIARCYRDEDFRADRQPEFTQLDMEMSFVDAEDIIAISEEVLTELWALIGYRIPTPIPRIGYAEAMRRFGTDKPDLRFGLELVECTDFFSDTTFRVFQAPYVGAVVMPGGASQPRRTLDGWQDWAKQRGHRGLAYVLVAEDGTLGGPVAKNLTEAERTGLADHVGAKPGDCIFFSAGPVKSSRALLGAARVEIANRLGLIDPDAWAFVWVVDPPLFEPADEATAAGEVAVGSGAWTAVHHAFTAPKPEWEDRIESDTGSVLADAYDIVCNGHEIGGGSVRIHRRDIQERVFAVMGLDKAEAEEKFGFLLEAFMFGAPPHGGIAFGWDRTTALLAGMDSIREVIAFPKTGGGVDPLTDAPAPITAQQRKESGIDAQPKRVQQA

In data set [1], `NC(=O)C1CCN(C2=NC(=O)/C(=C\c3ccc(Cl)cc3Cl)S2)CC1` [compound 1, F1673-0402] showed an IC50 of 49.9 µM. This counts as double-digit micromolar.

For `CCOC(=O)C1CCN(C2=NC(=O)/C(=C\c3ccc(Cl)cc3)S2)CC1` [compound 2, 6632725], the IC50 in data set [1] worked out at 59.1 µM. This IC50 and that of the molecule before are within 1.5-fold of each other.

“Mt-AspS (M. tuberculosis aspartyl-tRNA synthetase) (Mycobacterium tuberculosis H37Rv)”: the Km was found to be 143.4 ± 18.83 µM with N[C@@H](CC(=O)O)C(=O)O, 98.25 ± 11.23 µM in data set [2], 604.7 ± 40.27 µM in data set [3] and 76.42 ± 10.10 µM with O=P(O)(O)OP(=O)(O)O.

B1: Mycobacterium smegmatis aspartyl-tRNA synthetase AspS (enzyme, UniProt A0QWN3 1-598, looked up)
chain: MLRTHAAGSLRPADAGQTVTLAGWVARRRDHGGVIFIDLRDASGVSQVVFREGDVLAAAHRLRAEFCVAVTGVVEVRPEGNENPEIPTGQIEVNATELTVLGESAPLPFQLDEQAGEEARLKYRYLDLRREGPGNALRLRSKVNAAARSVLAEHDFVEIETPTLTRSTPEGARDFLVPARLQPGSFYALPQSPQLFKQLLMVAGMERYYQIARCYRDEDFRADRQPEFTQLDMEMSFVEADDVIAISEQVLKAVWATIGYDLPLPLPRISYEEAMRRFGSDKPDLRFGIELVECTEYFKDTTFRVFQAPYVGAVVMPGGASQPRRTLDGWQEFAKQRGHKGLAYVLVGEDGTLGGPVAKNLSDAERDGLVAHVGANPGDCIFFAAGPAKGARALLGATRIEIAKRLDLIDPNAWAFTWVVDFPMFEAADEATAAGDVAVGSGAWTAMHHAFTAPKPDSVDTFDSDPGNALSDAYDIVCNGNEIGGGSIRIHRRDIQERVFAMMGIDHDEAQEKFGFLLDAFSYGAPPHGGIAFGWDRITALLAGVDSIREVIAFPKSGGGVDPLTDAPAPITPQQRKESGIDAKPREDKPKEDAKSKA
notes: Aspartyl-tRNA synthetase AspS of Mycobacterium smegmatis; The expression and purification protocol is printed only for Mt-AspS (E. coli C41 (DE3), Ni2+ HisTrap); also called Ms-AspS; MsAspS; source: cloned from M. smegmatis genomic DNA into pET28b; dialysed and concentrated by ultrafiltration before crystallisation
Take B1: the “stoichiometry N” value in data set [4] was determined as 2.
